Data taken from patent US20140322216A1.

Molecular target: human glypican-3 naturally expressed on the cell surface (HepG2 and other GPC3+ cell lines) (human) (UniProt P51654)
Test: flow cytometry on HepG2, 1G12 with anti-mouse dye, grey = isotype control; on Hs578T the histogram lies on the control's

human glypican-3 naturally expressed on the cell surface (HepG2 and other GPC3+ cell lines) (human), sequence (P51654 25-554 limits assumed): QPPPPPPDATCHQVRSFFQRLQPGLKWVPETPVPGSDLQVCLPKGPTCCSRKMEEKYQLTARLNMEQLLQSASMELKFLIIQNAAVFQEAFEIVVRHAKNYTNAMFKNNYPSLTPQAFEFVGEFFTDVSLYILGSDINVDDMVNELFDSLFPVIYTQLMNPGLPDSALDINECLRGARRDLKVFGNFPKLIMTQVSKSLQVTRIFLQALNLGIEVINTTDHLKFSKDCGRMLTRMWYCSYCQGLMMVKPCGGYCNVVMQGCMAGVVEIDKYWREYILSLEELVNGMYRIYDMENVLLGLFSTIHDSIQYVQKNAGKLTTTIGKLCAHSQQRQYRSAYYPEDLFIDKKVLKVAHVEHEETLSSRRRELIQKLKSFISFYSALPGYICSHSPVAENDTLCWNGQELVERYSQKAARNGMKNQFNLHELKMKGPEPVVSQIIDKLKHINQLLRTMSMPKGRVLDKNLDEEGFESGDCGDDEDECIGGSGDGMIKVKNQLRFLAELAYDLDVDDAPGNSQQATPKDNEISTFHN

- % of cells in the positive gate: 46.1%
Substance: commercial monoclonal anti-human GPC3 antibody (clone 1G12)
